{"source": "the RNAGym collection of RNA variant scans (doi:10.7554/elife.80360)", "parents": {"B1": {"name": "Hairpin Ribozyme (parent)", "chain": "GUCCUCUUUCACGUGCGCGUGAAAGAGAGAAGUGAACCAGAGAAACACACGUUGUGGUAUAUUACCUGGUA"}}, "data": [{"variants_of": "B1", "assay": "self-cleavage, relative activity (ratio to wild type); higher = more cleavage; co-transcriptional", "values": [{"variant": "GUCCUCUUUCACGUGCGCGUGAAAGAGCGAAGUGAACCAGAGAUACACACGUUGUGGUAUAUUACCUGGUA", "note": "[A28C A44U]", "self-cleavage": 0.046}, {"variant": "GUCCUCUUUCACGUGCGCGUGAAAGAUAGAAGUGAACCAGAGAAACACACGUUGUGGUAUAUUAGCUGGUA", "note": "[G27U C65G]", "self-cleavage": 0.188}, {"variant": "GUCCUCUUUCACGUGCGCGUGAAAGAUAGAAGUGAACCAGAGAAACACACGUUGUGGUAUAUUAUCUGGUA", "note": "[G27U C65U]", "self-cleavage": 0.125}, {"variant": "GUCCUCUUUCACGUGCGCGUGAAAGAUUGAAGUGAACCAGAGAAACACACGUUGUGGUAUAUUACCUGGUA", "note": "[G27U A28U]", "self-cleavage": 0.148}, {"variant": "GUCCUCUUUCACGUGCGCGUGAAAGAGCGAAGUGAACCAGAGAAACAAACGUUGUGGUAUAUUACCUGGUA", "note": "[A28C C48A]", "self-cleavage": 0.122}, {"variant": "GUCCUCUUUCACGUGCGCGUGAAAGAUAGAAGUGAACCAGAGAAACACACGCUGUGGUAUAUUACCUGGUA", "note": "[G27U U52C]", "self-cleavage": 0.377}, {"variant": "GUCCUCUUUCACGUGCGCGUGAAAGAUAGAAGUGAACCAGAGAAACACACGGUGUGGUAUAUUACCUGGUA", "note": "[G27U U52G]", "self-cleavage": 0.114}, {"variant": "GUCCUCUUUCACGUGCGCGUGAAAGAUAGAAGUGAACCAGAGAAACACACGUUGUGGUAUAGUACCUGGUA", "note": "[G27U U62G]", "self-cleavage": 0.0869}, {"variant": "GUCCUCUUUCACGUGCGCGUGAAAGAUAGAAGUGAACCAGAGAAACACACGUUGUGUUAUAUUACCUGGUA", "note": "[G27U G57U]", "self-cleavage": 0.144}, {"variant": "GUCCUCUUUCACGUGCGCGUGAAAGAUAGAAGUGAACCAGAGAAACACACGUUGUGAUAUAUUACCUGGUA", "note": "[G27U G57A]", "self-cleavage": 0.209}, {"variant": "GUCCUCUUUCACGUGCGCGUGAAAGAUAGAAGUGAACCAGAUAAACACACGUUGUGGUAUAUUACCUGGUA", "note": "[G27U G42U]", "self-cleavage": 0.188}, {"variant": "GUCCUCUUUCACGUGCGCGUGAAAGAGCGAAGUGAACCAGAGAAACACACGUUGUGGUAUAUUGCCUGGUA", "note": "[A28C A64G]", "self-cleavage": 0.285}, {"variant": "GUCCUCUUUCACGUGCGCGUGAAAGAGCGAAGUGAACCAGAGAAACACACGUUGUGGUAUAUUUCCUGGUA", "note": "[A28C A64U]", "self-cleavage": 0.237}, {"variant": "GUCCUCUUUCACGUGCGCGUGAAAGAGCGAAGUGAACCAGAGAAACACACGUUGUGGUAUAUUCCCUGGUA", "note": "[A28C A64C]", "self-cleavage": 0.245}, {"variant": "GUCCUCUUUCACGUGCGCGUGAAAGAGCAAAGUGAACCAGAGAAACACACGUUGUGGUAUAUUACCUGGUA", "note": "[A28C G29A]", "self-cleavage": 0.199}, {"variant": "GUCCUCUUUCACGUGCGCGUGAAAGAUAGUAGUGAACCAGAGAAACACACGUUGUGGUAUAUUACCUGGUA", "note": "[G27U A30U]", "self-cleavage": 0.116}, {"variant": "GUCCUCUUUCACGUGCGCGUGAAAGAUAGAAGUGAACCAGAGAAACAUACGUUGUGGUAUAUUACCUGGUA", "note": "[G27U C48U]", "self-cleavage": 0.099}, {"variant": "GUCCUCUUUCACGUGCGCGUGAAAGAUAGAAGUGAACCAAAGAAACACACGUUGUGGUAUAUUACCUGGUA", "note": "[G27U G40A]", "self-cleavage": 0.117}, {"variant": "GUCCUCUUUCACGUGCGCGUGAAAGAUAGAAGUGAAGCAGAGAAACACACGUUGUGGUAUAUUACCUGGUA", "note": "[G27U C37G]", "self-cleavage": 0.109}, {"variant": "GUCCUCUUUCACGUGCGCGUGAAAGAUAGAAGUGAAUCAGAGAAACACACGUUGUGGUAUAUUACCUGGUA", "note": "[G27U C37U]", "self-cleavage": 0.22}, {"variant": "GUCCUCUUUCACGUGCGCGUGAAAGAUAGAAGUGAACCAGAGAAACACACGUUGUGGUAUGUUACCUGGUA", "note": "[G27U A61G]", "self-cleavage": 0.171}, {"variant": "GUCCUCUUUCACGUGCGCGUGAAAGAUAGAAGUGAACCAGAGAAACACACGUUGUGGUAUUUUACCUGGUA", "note": "[G27U A61U]", "self-cleavage": 0.107}, {"variant": "GUCCUCUUUCACGUGCGCGUGAAAGAGCGAAGUGAACCAGAGAAACACACGUUGUGGUAUGUUACCUGGUA", "note": "[A28C A61G]", "self-cleavage": 0.1}, {"variant": "GUCCUCUUUCACGUGCGCGUGAAAGAGCGAAGUGAACCAGGGAAACACACGUUGUGGUAUAUUACCUGGUA", "note": "[A28C A41G]", "self-cleavage": 0.352}, {"variant": "GUCCUCUUUCACGUGCGCGUGAAAGAUAGACGUGAACCAGAGAAACACACGUUGUGGUAUAUUACCUGGUA", "note": "[G27U A31C]", "self-cleavage": 0.205}, {"variant": "GUCCUCUUUCACGUGCGCGUGAAAGAUAGAUGUGAACCAGAGAAACACACGUUGUGGUAUAUUACCUGGUA", "note": "[G27U A31U]", "self-cleavage": 0.119}, {"variant": "GUCCUCUUUCACGUGCGCGUGAAAGAGCGAAGUGAACCAGAGAAACACACGUUGUGGUCUAUUACCUGGUA", "note": "[A28C A59C]", "self-cleavage": 0}, {"variant": "GUCCUCUUUCACGUGCGCGUGAAAGAGCGAAGUGAACCGGAGAAACACACGUUGUGGUAUAUUACCUGGUA", "note": "[A28C A39G]", "self-cleavage": 0.171}, {"variant": "GUCCUCUUUCACGUGCGCGUGAAAGAUAGAAGUGAACCAGAGAAACACACGUUGAGGUAUAUUACCUGGUA", "note": "[G27U U55A]", "self-cleavage": 0.152}, {"variant": "GUCCUCUUUCACGUGCGCGUGAAAGAUAGAAGUGAACCAGAGAAACACACGUUGUGGUAAAUUACCUGGUA", "note": "[G27U U60A]", "self-cleavage": 0.243}, {"variant": "GUCCUCUUUCACGUGCGCGUGAAAGAGCGAAGUGAACCAGAGAAACACACGUUAUGGUAUAUUACCUGGUA", "note": "[A28C G54A]", "self-cleavage": 0.301}, {"variant": "GUCCUCUUUCACGUGCGCGUGAAAGAGCGAAGUGAACCAGAGAAACACACGUUCUGGUAUAUUACCUGGUA", "note": "[A28C G54C]", "self-cleavage": 0.187}, {"variant": "GUCCUCUUUCACGUGCGCGUGAAAGAUAGAAGUGAACGAGAGAAACACACGUUGUGGUAUAUUACCUGGUA", "note": "[G27U C38G]", "self-cleavage": 0.17}, {"variant": "GUCCUCUUUCACGUGCGCGUGAAAGAUAGAAGUGAACAAGAGAAACACACGUUGUGGUAUAUUACCUGGUA", "note": "[G27U C38A]", "self-cleavage": 0.12}, {"variant": "GUCCUCUUUCACGUGCGCGUGAAAGAGCGAAGUGAACCAGAGAAACACACGUUGUGGUAUAUUAACUGGUA", "note": "[A28C C65A]", "self-cleavage": 0.231}, {"variant": "GUCCUCUUUCACGUGCGCGUGAAAGAGCGAAGUGAACCAGAGAAACACACGUUGUGGUAUAUUAUCUGGUA", "note": "[A28C C65U]", "self-cleavage": 0.249}, {"variant": "GUCCUCUUUCACGUGCGCGUGAAAGAUAGAAGUGUACCAGAGAAACACACGUUGUGGUAUAUUACCUGGUA", "note": "[G27U A35U]", "self-cleavage": 0.203}, {"variant": "GUCCUCUUUCACGUGCGCGUGAAAGAUAGAAGUGCACCAGAGAAACACACGUUGUGGUAUAUUACCUGGUA", "note": "[G27U A35C]", "self-cleavage": 0.44}]}]}
